The source of these data is the supplement of paper PMC9112550, “Optimization of the antimicrobial peptide Bac7 by deep mutational scanning” (BMC Biology, 2022).

The series has as its system Escherichia coli TOP10. The series can be described thus: shrunken log2 fold change of peptide-encoding DNA abundance (4.5 h post-induction vs induction); higher = less antimicrobial activity (less host growth inhibition). The settings on record: time post-induction: 4.5 h; library: site-saturation at positions 5, 18, 19, 20.
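Note: peptides expressed intracellularly from a pBAD plasmid library in pooled LB shake-flask culture, induced with 0.3% L-arabinose, DNA abundance read by NGS, three biological replicates, DESeq2 with apeglm shrinkage.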

Turning to RRIRVRPPRLPRPRPRPMYWPRP, the “shrunken log2 fold change” value was -0.0619.

In the case of RRIRSRPPRLPRPRPRPQYLPRP, the “shrunken log2 fold change” value is -0.683.

For the sequence RRIRLRPPRLPRPRPRPHRYPRP, the “shrunken log2 fold change” value is 0.00601.

Consider RRIRERPPRLPRPRPRPKEFPRP, for which the “shrunken log2 fold change” value is -0.11.

RRIRYRPPRLPRPRPRPFSVPRP: the “shrunken log2 fold change” value is -0.313.

As to RRIRVRPPRLPRPRPRPDRFPRP, the “shrunken log2 fold change” value was found to be 0.0559.

On to RRIRHRPPRLPRPRPRPMVLPRP, for which the “shrunken log2 fold change” value was -0.0459.

Turning to RRIRHRPPRLPRPRPRPEYFPRP, the “shrunken log2 fold change” value was -0.0339.

In the case of RRIRNRPPRLPRPRPRPSCEPRP, the “shrunken log2 fold change” value is -0.229.

Consider RRIRQRPPRLPRPRPRPQSEPRP, for which the “shrunken log2 fold change” value is -0.173.

Turning to RRIRARPPRLPRPRPRPLLGPRP, the “shrunken log2 fold change” value was 1.07.

For RRIRPRPPRLPRPRPRPDPRPRP, the “shrunken log2 fold change” value was found to be 0.649.

Take RRIRPRPPRLPRPRPRPMSNPRP: the “shrunken log2 fold change” value was -0.127.

Consider RRIRHRPPRLPRPRPRPQFMPRP, for which the “shrunken log2 fold change” value is -0.864.

Take RRIRVRPPRLPRPRPRPGCPPRP: the “shrunken log2 fold change” value is 0.181.

For the sequence RRIRRRPPRLPRPRPRPCSIPRP, the “shrunken log2 fold change” value was -0.0224.

For RRIRIRPPRLPRPRPRPCRYPRP, the “shrunken log2 fold change” value was -0.317.

Consider RRIRRRPPRLPRPRPRPDKIPRP, for which the “shrunken log2 fold change” value amounted to 0.402.

As to RRIRHRPPRLPRPRPRPEQLPRP, the “shrunken log2 fold change” value is -0.0602.

On to RRIRERPPRLPRPRPRPKVYPRP, for which the “shrunken log2 fold change” value was -0.126.

Regarding RRIRTRPPRLPRPRPRPYQHPRP, the “shrunken log2 fold change” value is -0.376.

With RRIRARPPRLPRPRPRPANRPRP, the “shrunken log2 fold change” value came out at 0.467.

As to RRIRKRPPRLPRPRPRPYGLPRP, the “shrunken log2 fold change” value was 0.0165.

On to RRIRLRPPRLPRPRPRPDNVPRP, for which the “shrunken log2 fold change” value came out at 0.0219.

For RRIRQRPPRLPRPRPRPHNEPRP, the “shrunken log2 fold change” value is -0.161.

RRIRMRPPRLPRPRPRPVVFPRP: the “shrunken log2 fold change” value is 2.6.

For RRIRARPPRLPRPRPRPFWRPRP, the “shrunken log2 fold change” value stood at 0.36.

For the sequence RRIRERPPRLPRPRPRPHFYPRP, the “shrunken log2 fold change” value was -0.0121.

Consider RRIRWRPPRLPRPRPRPFDKPRP, for which the “shrunken log2 fold change” value was -0.012.

As to RRIRNRPPRLPRPRPRPECVPRP, the “shrunken log2 fold change” value was -0.127.

Consider RRIRVRPPRLPRPRPRPTKWPRP, for which the “shrunken log2 fold change” value was found to be 0.0808.

As to RRIRPRPPRLPRPRPRPFYIPRP, the “shrunken log2 fold change” value was -0.312.

Turning to RRIRWRPPRLPRPRPRPYEAPRP, the “shrunken log2 fold change” value was -0.569.

With RRIRGRPPRLPRPRPRPQDTPRP, the “shrunken log2 fold change” value was found to be 0.0614.

Consider RRIRWRPPRLPRPRPRPVSWPRP, for which the “shrunken log2 fold change” value is 0.782.

With RRIRRRPPRLPRPRPRPTNFPRP, the “shrunken log2 fold change” value is -0.125.

RRIRSRPPRLPRPRPRPMHGPRP: the “shrunken log2 fold change” value came to 0.102.

On to RRIRSRPPRLPRPRPRPTWVPRP, for which the “shrunken log2 fold change” value is 0.0759.

For RRIRARPPRLPRPRPRPLCNPRP, the “shrunken log2 fold change” value is -0.0439.

For RRIRYRPPRLPRPRPRPKMWPRP, the “shrunken log2 fold change” value is -0.113.

As to RRIRLRPPRLPRPRPRPCETPRP, the “shrunken log2 fold change” value is -0.155.

For the sequence RRIRPRPPRLPRPRPRPPKKPRP, the “shrunken log2 fold change” value was 0.0716.

Take RRIRTRPPRLPRPRPRPEFCPRP: the “shrunken log2 fold change” value is 0.146.

With RRIRGRPPRLPRPRPRPKWGPRP, the “shrunken log2 fold change” value turned out to be 0.215.

For RRIRCRPPRLPRPRPRPAEAPRP, the “shrunken log2 fold change” value turned out to be 0.12.

Consider RRIRRRPPRLPRPRPRPSNCPRP, for which the “shrunken log2 fold change” value is -0.252.

With RRIRWRPPRLPRPRPRPIRHPRP, the “shrunken log2 fold change” value was -0.252.

Take RRIRNRPPRLPRPRPRPEVYPRP: the “shrunken log2 fold change” value is 0.0702.

For the sequence RRIRGRPPRLPRPRPRPFSVPRP, the “shrunken log2 fold change” value turned out to be 0.429.

With RRIRIRPPRLPRPRPRPHAQPRP, the “shrunken log2 fold change” value was 0.142.
